Experimental data published in publication PMC8208711.

Target: human wild-type full-length CC chemokine receptor 5 (CCR5) (human) (UniProt P51681)

Substance	Ca2+ flux in HEK-CCR5 cells, decrease of Emax against [6P4]CCL5
[6P4]CCL5 D5A (ligand)	30%
[6P4]CCL5 D5K (ligand)	60%
